# Reference: patent US20230134571A1 (INTERNATIONAL AIDS VACCINE INITIATIVE, published 2023)
# B1: ePGDM9 (antibody, V domains shown)
# VH: QAQLVQSGPEVRKPGTSVKVSCKNPGNTLTTYDLHWVRQVPGQGLQWMGWISHEGDKKVIVERFKAKVTIDWDRSTNTAYLQLSGLTSEDTAVYYCAKGSKHRLRDYALYDEDGALNWAVDVDYLANLEFWGQGTAVTVSS
# VL: DIVLTQSPLSLSVTPGESASISCKSSQSLIHGDRNNYLAWYVQKPGRSPQLLIDLASERASGVPDRFSGSGSRKDFTLKISRVETEDVGTYYCMQGRESPWTFGQGTKVDIK
# Assays:
# Test in all cases: cell-based or functional assay
# [1] = molecular target: HIV Env, isolate 21197826_V1 (HIV)
# [2] = molecular target: HIV Env, isolate CT184_D3.15 (HIV)
# [3] = molecular target: HIV Env, isolate 235080_3G7env2(Rev-) (HIV)
# [4] = molecular target: HIV Env, isolate So431_C1_1 (HIV)
# [5] = molecular target: HIV Env, isolate 19252094_A5_G2 (HIV)
# [6] = molecular target: HIV Env, isolate 6040.v4.c15 (HIV)
# [7] = molecular target: HIV Env, isolate Ko426_T78_10 (HIV)
# [8] = molecular target: HIV Env, isolate CA240_A5.5 (HIV)
# [9] = molecular target: HIV Env, isolate 2768732_C5_16 (HIV)
# [10] = molecular target: HIV Env, isolate CAP330.2.00_F2.41 (HIV)
# [11] = molecular target: HIV Env, isolate B005018-8_F6.3 (HIV)
# [12] = molecular target: HIV Env, isolate 21561324_D3_B5 (HIV)
# [13] = molecular target: HIV Env, isolate 21203310_G7_C3 (HIV)
# [14] = molecular target: HIV Env, isolate ZM233M.PB6 (HIV)
# [15] = molecular target: HIV Env, isolate SO607_B6.9 (HIV)
# [16] = molecular target: HIV Env, isolate ZM135M.PL10a (HIV)
# [17] = molecular target: HIV Env, isolate CAP225.1.06_A2_18 (HIV)
# [18] = molecular target: HIV Env, isolate CA146_H3_3 (HIV)
# [19] = molecular target: HIV Env, isolate 1170887.08 (HIV)
# [20] = molecular target: HIV Env, isolate ZM215F.PB8 (HIV)
# [21] = molecular target: HIV Env, isolate 6022.v7.c24 (HIV)
# [22] = molecular target: HIV Env, isolate CT565_C7.48 (HIV)
# [23] = molecular target: HIV Env, isolate 6146.v7.c23 (HIV)
# [24] = molecular target: HIV Env, isolate ZM249M.PL1 (HIV)
# [25] = molecular target: HIV Env, isolate 21283649 (HIV)
# [26] = molecular target: HIV Env, isolate 20417927.07 (HIV)
# [27] = molecular target: HIV Env, isolate 7060101641A7(Rev-) (HIV)
# [28] = molecular target: HIV Env, isolate 20104663_E11_D2 (HIV)
# [29] = molecular target: HIV Env, isolate 3426.v5.c17 (HIV)
# [30] = molecular target: HIV Env, isolate 20915593 (HIV)
# [31] = molecular target: HIV Env, isolate TRP307.2.00_24_1 (HIV)
# [32] = molecular target: HIV Env, isolate CAP291.2.00_H2.15 (HIV)
# [33] = molecular target: HIV Env, isolate 20286961_C1_H8 (HIV)
# [34] = molecular target: HIV Env, isolate CH0505.w4.3 (HIV)
# HIV Env, isolate 2969249 = HIV Env, isolate 2969249 (HIV)
# [35] = molecular target: HIV Env, isolate 556_F2_3_25 (HIV)
binder,measurement,setting,value
B1,IC50,[1],12.7 µg/mL
same,IC80,[1],34.6 µg/mL
same,IC50,[2],< 0.0006 µg/mL
same,IC80,[2],0.002 µg/mL
same,IC50,[3],0.002 µg/mL
same,IC80,[3],0.005 µg/mL
same,IC50,[4],> 50 µg/mL
same,IC80,[4],> 50 µg/mL
same,IC50,[5],0.001 µg/mL
same,IC80,[5],0.003 µg/mL
same,IC50,[6],< 0.0006 µg/mL
same,IC80,[6],0.003 µg/mL
same,IC50,[7],> 50 µg/mL
same,IC80,[7],> 50 µg/mL
same,IC50,[8],> 50 µg/mL
same,IC80,[8],> 50 µg/mL
same,IC50,[9],0.016 µg/mL
same,IC80,[9],0.114 µg/mL
same,IC50,[10],< 0.0006 µg/mL
same,IC80,[10],0.004 µg/mL
same,IC50,[11],< 0.0006 µg/mL
same,IC80,[11],0.003 µg/mL
same,IC50,[12],0.004 µg/mL
same,IC80,[12],0.038 µg/mL
same,IC50,[13],9.94 µg/mL
same,IC80,[13],> 50 µg/mL
same,IC50,[14],< 0.0006 µg/mL
same,IC80,[14],0.001 µg/mL
same,IC50,[15],29.5 µg/mL
same,IC80,[15],> 50 µg/mL
same,IC50,[16],> 50 µg/mL
same,IC80,[16],> 50 µg/mL
same,IC50,[17],0.025 µg/mL
same,IC80,[17],0.167 µg/mL
same,IC50,[18],> 50 µg/mL
same,IC80,[18],> 50 µg/mL
same,IC50,[19],0.008 µg/mL
same,IC80,[19],0.056 µg/mL
same,IC50,[20],< 0.0006 µg/mL
same,IC80,[20],0.007 µg/mL
same,IC50,[21],> 50 µg/mL
same,IC80,[21],> 50 µg/mL
same,IC50,[22],< 0.0006 µg/mL
same,IC80,[22],0.086 µg/mL
same,IC50,[23],0.019 µg/mL
same,IC80,[23],0.249 µg/mL
same,IC50,[24],0.004 µg/mL
same,IC80,[24],0.05 µg/mL
same,IC50,[25],1.55 µg/mL
same,IC80,[25],> 50 µg/mL
same,IC50,[26],0.03 µg/mL
same,IC80,[26],0.679 µg/mL
same,IC50,[27],0.002 µg/mL
same,IC80,[27],0.013 µg/mL
same,IC50,[28],< 0.0006 µg/mL
same,IC80,[28],0.001 µg/mL
same,IC50,[29],< 0.0006 µg/mL
same,IC80,[29],0.002 µg/mL
same,IC50,[30],0.004 µg/mL
same,IC80,[30],0.015 µg/mL
same,IC50,[31],> 50 µg/mL
same,IC80,[31],> 50 µg/mL
same,IC50,[32],0.342 µg/mL
same,IC80,[32],1.1 µg/mL
same,IC50,[33],0.023 µg/mL
same,IC80,[33],> 50 µg/mL
same,IC50,[34],0.001 µg/mL
same,IC80,[34],0.011 µg/mL
same,IC50,"HIV Env, isolate 2969249",> 50 µg/mL
same,IC80,"HIV Env, isolate 2969249",> 50 µg/mL
same,IC50,[35],> 50 µg/mL
same,IC80,[35],> 50 µg/mL
